Data taken from US12383631.

Experiments:
[1] = biological target: Composition A (LZM-009 conjugated to IL-18 polypeptide of SEQ ID NO: 30) (human) (UniProt Q14116)
[2] = biological target: Composition C (Trastuzumab/Herceptin conjugated to IL-18 polypeptide of SEQ ID NO: 30) (human)
[3] = biological target: Composition D (LZM-009 conjugated to IL-18 polypeptide of SEQ ID NO: 31) (human) (UniProt Q14116)
[4] = biological target: IL-18 polypeptide of SEQ ID NO: 31 (C38A, C76A, C127A) (human) (UniProt Q14116)
[5] = biological target: native IL-18 wild-type (SEQ ID NO: 1) (human) (UniProt Q14116)
[6] = biological target: Composition B (Atezolizumab/Tecentriq conjugated to IL-18 polypeptide of SEQ ID NO: 30) (human) [IgG part: P0DOX5]; assay: cell-based or functional assay
[7] = biological target: IL-18 polypeptide C145 (human) (UniProt Q14116); assay: cell-based or functional assay
[8] = biological target: IL-18 polypeptide C148 (human) (UniProt Q14116); assay: cell-based or functional assay
[9] = biological target: IL-18 polypeptide C149 (human) (UniProt Q14116); assay: cell-based or functional assay
[10] = biological target: IL-18 polypeptide C150 (human) (UniProt Q14116); assay: cell-based or functional assay
[11] = biological target: IL-18 polypeptide C151 (human) (UniProt Q14116); assay: cell-based or functional assay
[12] = biological target: IL-18 polypeptide C152 (human) (UniProt Q14116); assay: cell-based or functional assay
[13] = biological target: IL-18 polypeptide C154 (human) (UniProt Q14116); assay: cell-based or functional assay
[14] = biological target: IL-18 polypeptide C156 (human) (UniProt Q14116); assay: cell-based or functional assay
[15] = biological target: IL-18 polypeptide C158 (human) (UniProt Q14116); assay: cell-based or functional assay
[16] = biological target: IL-18 polypeptide C160 (human) (UniProt Q14116); assay: cell-based or functional assay
[17] = biological target: IL-18 polypeptide C161 (human) (UniProt Q14116); assay: cell-based or functional assay
[18] = biological target: IL-18 polypeptide C162 (human) (UniProt Q14116); assay: cell-based or functional assay
[19] = biological target: IL-18 polypeptide C165 (human) (UniProt Q14116); assay: cell-based or functional assay
[20] = biological target: IL-18 polypeptide C166 (human) (UniProt Q14116); assay: cell-based or functional assay
[21] = biological target: IL-18 polypeptide of SEQ ID NO: 30 (E6K, V11I, C38A, K53A, T63A, C76A, C127A) (human) (UniProt Q14116); assay: cell-based or functional assay
[22] = biological target: IL-18 polypeptide of SEQ ID NO: 34 (E06K, K53A, S55A) (human) (UniProt Q14116); assay: cell-based or functional assay
[23] = biological target: IL-18 polypeptide of SEQ ID NO: 35 (Y01G, F02A, E06K, M51G, K53A, D54A, S55A, T63A) (human) (UniProt Q14116); assay: cell-based or functional assay
[24] = biological target: IL-18 polypeptide of SEQ ID NO: 36 (K53A) (human) (UniProt Q14116); assay: cell-based or functional assay
[25] = biological target: IL-18 polypeptide of SEQ ID NO: 37 (S55A) (human) (UniProt Q14116); assay: cell-based or functional assay
[26] = biological target: IL-18 polypeptide of SEQ ID NO: 39 (E06K, K53A) (human) (UniProt Q14116); assay: cell-based or functional assay
[27] = biological target: IL-18 polypeptide of SEQ ID NO: 4 (E6K, C38A, K53A, C68A, M86C) (human) (UniProt Q14116); assay: cell-based or functional assay
[28] = biological target: IL-18 polypeptide of SEQ ID NO: 41 (K53A, S55A) (human) (UniProt Q14116); assay: cell-based or functional assay
[29] = biological target: IL-18 polypeptide of SEQ ID NO: 42 (E06K, K53A, S55A, T63A) (human) (UniProt Q14116); assay: cell-based or functional assay
[30] = biological target: IL-18 polypeptide of SEQ ID NO: 43 (E06K, K53A, S55A, Y01G) (human) (UniProt Q14116); assay: cell-based or functional assay
[31] = biological target: IL-18 polypeptide of SEQ ID NO: 46 (E06K, K53A, S55A, M51G) (human) (UniProt Q14116); assay: cell-based or functional assay
[32] = biological target: IL-18 polypeptide of SEQ ID NO: 5 (E6K, V11I, C38A, K53A, T63A, C68A, C76A, M86C, C127A) (human) (UniProt Q14116); assay: cell-based or functional assay
[33] = biological target: IL-18 polypeptide of SEQ ID NO: 50 (E06K, K53A, T63A) (human) (UniProt Q14116); assay: cell-based or functional assay
[34] = biological target: IL-18 polypeptide of SEQ ID NO: 51 (T63A) (human) (UniProt Q14116); assay: cell-based or functional assay
[35] = biological target: IL-18 polypeptide of SEQ ID NO: 52 (E06K, T63A) (human) (UniProt Q14116); assay: cell-based or functional assay
[36] = biological target: IL-18 polypeptide of SEQ ID NO: 53 (K53A, T63A) (human) (UniProt Q14116); assay: cell-based or functional assay
[37] = biological target: IL-18 polypeptide of SEQ ID NO: 59 (E6K, C38A, K53A) (human) (UniProt Q14116); assay: cell-based or functional assay
[38] = biological target: IL-18 polypeptide of SEQ ID NO: 60 (E6K, C38Q, K53A) (human) (UniProt Q14116); assay: cell-based or functional assay
[39] = biological target: IL-18 polypeptide of SEQ ID NO: 62 (E6K, C38A, K53A, C127A) (human) (UniProt Q14116); assay: cell-based or functional assay

IC50 (read off the curve), IFNg secretion of the stimulated NK92 cells (IFNg AlphaLISA signal) [1]: 8 nM | IC50 (read off the curve), IFNg secretion of the stimulated NK92 cells (IFNg AlphaLISA signal) [2]: 10 nM | IC50 (read off the curve), IFNg secretion of the stimulated NK92 cells (IFNg AlphaLISA signal) [3]: 0.1 nM | IC50 (read off the curve), IFNg secretion of the stimulated NK92 cells (IFNg AlphaLISA signal) [4]: 0.3 nM | IC50 (read off the curve), IFNg secretion of the stimulated NK92 cells (IFNg AlphaLISA signal) [5]: 1 nM | IC50 of IL-18BPa on IFNγ secretion by NK92 cells [6]: > 1000 nM | IC50 of IL-18BP on IFNγ secretion, NK92 cells [7]: 10.2 nM | IC50 of IL-18BP on IFNγ secretion, NK92 cells [8]: 5.05 nM | IC50 of IL-18BP on IFNγ secretion, NK92 cells [9]: 1.17 nM | IC50 of IL-18BP on IFNγ secretion, NK92 cells [10]: 21.3 nM | IC50 of IL-18BP on IFNγ secretion, NK92 cells [11]: 3.62 nM | IC50 of IL-18BP on IFNγ secretion, NK92 cells [12]: 7.85 nM | IC50 of IL-18BP on IFNγ secretion, NK92 cells [13]: 3.71 nM | IC50 of IL-18BP on IFNγ secretion, NK92 cells [14]: 0.681 nM | IC50 of IL-18BP on IFNγ secretion, NK92 cells [15]: 3.98 nM | IC50 of IL-18BP on IFNγ secretion, NK92 cells [16]: 3.18 nM | IC50 of IL-18BP on IFNγ secretion, NK92 cells [17]: 1.07 nM | IC50 of IL-18BP on IFNγ secretion, NK92 cells [18]: 7.29 nM | IC50 of IL-18BP on IFNγ secretion, NK92 cells [19]: 0.885 nM | IC50 of IL-18BP on IFNγ secretion, NK92 cells [20]: 0.44 nM | IC50 of IL-18BPa on IFNγ secretion by NK92 cells [21]: 488 nM | IC50 of IL-18BP on IFNγ secretion, NK92 cells [22]: 229 nM | IC50 of IL-18BP on IFNγ secretion, NK92 cells [23]: > 55 nM | IC50 of IL-18BP on IFNγ secretion, NK92 cells [24]: 27.3 nM | IC50 of IL-18BP on IFNγ secretion, NK92 cells [25]: 4.46 nM | IC50 of IL-18BP on IFNγ secretion, NK92 cells [26]: > 703 nM | IC50 of IL-18BP on IFNγ secretion, NK92 cells [27]: 396 nM | IC50 of IL-18BP on IFNγ secretion, NK92 cells [28]: 37.3 nM | IC50 of IL-18BP on IFNγ secretion, NK92 cells [29]: 1060 nM | IC50 of IL-18BP on IFNγ secretion, NK92 cells [30]: 27.8 nM | IC50 of IL-18BP on IFNγ secretion, NK92 cells [31]: 0.189 nM | IC50 of IL-18BP on IFNγ secretion, NK92 cells [32]: 62.4 nM | IC50 of IL-18BP on IFNγ secretion, NK92 cells [33]: > 1000 nM | IC50 of IL-18BP on IFNγ secretion, NK92 cells [34]: 0.239 nM | IC50 of IL-18BP on IFNγ secretion, NK92 cells [35]: 47.1 nM | IC50 of IL-18BP on IFNγ secretion, NK92 cells [36]: 18.2 nM | IC50 of IL-18BP on IFNγ secretion, NK92 cells [37]: 654 nM | IC50 of IL-18BP on IFNγ secretion, NK92 cells [38]: 780 nM | IC50 of IL-18BP on IFNγ secretion, NK92 cells [39]: 284 nM
Substance: Fc fused human IL-18 binding protein isoform a (IL-18BPa; R&D systems, Cat #119-BP) (from UniProt O95998 31-194) (Fc fusion)
